According to patent US7732133B2, “Screening methods for biologically active ligands” (Chugai Seiyaku Kabushiki Kaisha, priority 2000, dated 2010):

Experiments:
[1] = biological target: T1, chimeric TPO receptor (human TPO receptor extracellular domain / mouse G-CSF receptor) in Ba/F3 cell line TPG (Homo sapiens, UniProt P40238); test: Growth response of chimeric TPO receptor-expressing Ba/F3 cell line TPG (WST-8); assay type: cell-based; conditions: 72 hours culture, WST-8 absorbance
T1 construct: from the 1st to the 491st amino acid residues; expressed in transfected cells; host or cells: mouse Ba/F3 cells, clone TPG#219 = TPG
T1 sequence (P40238 26-491): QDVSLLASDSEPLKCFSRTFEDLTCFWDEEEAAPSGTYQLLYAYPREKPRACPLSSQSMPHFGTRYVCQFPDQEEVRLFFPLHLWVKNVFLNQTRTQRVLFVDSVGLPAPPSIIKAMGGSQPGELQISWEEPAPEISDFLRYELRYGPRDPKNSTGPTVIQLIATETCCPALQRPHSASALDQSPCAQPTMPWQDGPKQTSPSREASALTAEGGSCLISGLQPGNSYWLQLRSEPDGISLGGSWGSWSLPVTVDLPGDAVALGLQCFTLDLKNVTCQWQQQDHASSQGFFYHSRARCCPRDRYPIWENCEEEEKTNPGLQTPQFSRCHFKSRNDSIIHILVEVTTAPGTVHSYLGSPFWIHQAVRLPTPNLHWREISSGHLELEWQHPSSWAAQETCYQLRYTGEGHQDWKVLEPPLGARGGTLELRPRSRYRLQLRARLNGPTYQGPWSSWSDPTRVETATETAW
Text: A chimeric receptor cDNA was constructed by linking cDNA fragments encoding the extracellular domain (from the 1st to the 491st amino acid residues; Vigon, I. et al. (1992) Proc. Natl. Acad. Sci. USA 89, 5640-5644) of human TPO receptor, and the transmembrane and intracellular domains (from the 602nd to the 813th amino acid residues; Fukunaga, R. et al. (1990) Cell 61, 341-350) of mouse G-CSF receptor. The cDNA was inserted downstream of the EF1α promoter of the mammalian expression vector pCOS-G to construct chimeric receptor-expression vector TG/pCOS-G. TG/pCOS-G was linearized with Pvu I (Takara Shuzo), extracted with phenol and chloroform, and purified by ethanol precipitation.
The linearized expression gene vector was introduced into mouse Ba/F3 cells (purchased from RIKEN; Cell No.: RCB0805) using an electroporation apparatus (Gene Pulser: Bio Rad) The Ba/F3 cells were washed twice with Dulbecco's PBS (hereinafter referred to as PBS), and then were suspended in PBS to give a cell density of about 1×10^7 cells/mL. […]
The cells were washed twice with Media A, and were suspended in Media A to give a cell density of 5×10^4 cells/mL. […] The absorbance at a measurement wavelength of 450 nm and a control wavelength of 655 nm after the 2 hours incubation was measured using microplate reader (Model 3550, Bio Rad).

[2] = test system: mixed culture of cell lines GFG, EPG, TPG and parental Ba/F3; test: Cytokine responses in mixed and individual cell cultures (Example 2); assay type: cell-based, mouse; conditions: mixed culture of four cell lines (each 4×10^3 cells/well), similar in individual cultures, 72 hours, WST-8; listed as hTPO
Method: Mixed culture of the cell lines GFG, EPG, and TPG, which express human G-CSF, EPO, and TPO chimeric receptors, respectively, and their parental cell line Ba/F3 was conducted and their response to various cytokines was examined.
The cells were washed twice with RPMI1640 media containing 2% fetal bovine serum, and then were suspended in RPMI1640 containing 10% fetal bovine serum. The four cell lines were mixed by adjusting each of the cell lines to 4×10^4 cells/mL (16×10^4 cells/mL in total) for the mixed culture, and, for individual cultures, cells were prepared at 4×10^4 cells/mL. 100 μL each of the cells were independently seeded on a 96-well microtiter plate (flat bottom, Falcon). After adding 100 μL/well each of appropriately diluted cytokines, the cultures were cultured for 72 hours in a CO2 incubator (5% CO2 concentration). After the culture, 10 μL/well WST-8 reagent (Cell Count Reagent SF; Nacalai Tesque) was added, and pre-reaction absorbance at a measurement wavelength of 450 nm and a control wavelength of 655 nm was measured using a microplate reader (Model 3550, Bio Rad). The plate was incubated for two hours in a CO2 incubator (CO2 concentration, 5%), and post-reaction absorbance was measured as above. Data were graphed out taking the cytokine concentrations on the horizontal axis and the amount of changes in absorbance after 2-hour incubation on the vertical axis (FIGS. 18, 19, and 20).

[3] = biological target: T2, chimeric IL-10 receptor (human IL-10Rα and IL-10Rβ / mouse G-CSF receptor) in Ba/F3 cell line 10G (Homo sapiens, UniProt Q08334+Q13651); test: Growth response of chimeric IL-10 receptor-expressing Ba/F3 cell line 10G (WST-8); assay type: cell-based; conditions: 72 hours culture, WST-8 absorbance
T2 construct: from the 1st to the 235th amino acid residue; from the 1st to the 220th amino acid residues; expressed in transfected cells; host or cells: mouse Ba/F3 cells co-transfected with pCV-cIL10Rα and pCV-cIL10Rβ, clone 10G#10 = 10G
T2 sequence (Q13651 22-235): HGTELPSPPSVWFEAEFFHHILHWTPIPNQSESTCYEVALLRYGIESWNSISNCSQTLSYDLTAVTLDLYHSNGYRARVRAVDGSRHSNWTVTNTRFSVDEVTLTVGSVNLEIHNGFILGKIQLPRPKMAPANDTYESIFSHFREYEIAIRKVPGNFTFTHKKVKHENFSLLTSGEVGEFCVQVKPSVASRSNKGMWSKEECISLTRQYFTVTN
T2 sequence (Q08334 20-220): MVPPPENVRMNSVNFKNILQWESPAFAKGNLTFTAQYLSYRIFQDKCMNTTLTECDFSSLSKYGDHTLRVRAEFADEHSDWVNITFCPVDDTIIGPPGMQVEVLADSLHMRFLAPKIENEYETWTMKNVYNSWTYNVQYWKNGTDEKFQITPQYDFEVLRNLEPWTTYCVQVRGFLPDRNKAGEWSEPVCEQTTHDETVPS
T2 sequence (P40223 627-837 partner limits assumed): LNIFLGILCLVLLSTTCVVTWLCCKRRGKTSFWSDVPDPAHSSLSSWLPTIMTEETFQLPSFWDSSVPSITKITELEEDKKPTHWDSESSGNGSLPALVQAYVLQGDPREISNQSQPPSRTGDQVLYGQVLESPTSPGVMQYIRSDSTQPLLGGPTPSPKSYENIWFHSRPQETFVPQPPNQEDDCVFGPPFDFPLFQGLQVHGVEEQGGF
Text: Chimeric receptor cDNAs were constructed by linking cDNA fragments encoding the α chain (IL-10Rα) (from the 1st to the 235th amino acid residue; Liu, Y. et al. (1994) J. Immunol. 152, 1821-1829) and the hIL-10R subunit (CRFB4; IL-10Rβ) extracellular domain (from the 1st to the 220th amino acid residues; Lutfalla, G. et al. (1993) Genomics 16, 366-373) of human IL-10 receptor with the transmembrane and intracellular domains (from the 602nd to the 813th amino acid residues; Fukunaga, R. et al. (1990) Cell 61, 341-350) of mouse G-CSF receptor, respectively. […]
The cells were washed twice with Media A, and were suspended in Media A to give a cell density of 5×10^4 cells/mL. […] After the culture, 10 μL/well WST-8 reagent (Cell Count Reagent SF; Nacalai Tesque) was added, and pre-reaction absorbance at a measurement wavelength of 450 nm and a control wavelength of 655 nm was measured using microplate reader (Model 3550, Bio Rad). The plate was incubated for two hours in a CO2 incubator (CO2 concentration, 5%), and post-reaction absorbance was measured as above. […]

Row | concentration at which an evident growth reaction was observed [1] | concentration at which an evident growth reaction was observed [3] | Substance | concentration where the response was observed to start [2]
1 | ≥ 100 pg/mL | – | thrombopoietin [human TPO] | 200 pg/mL
2 | – | ≥ 0.5 ng/mL | human IL-10: human interleukin 10 (Genzyme) | –
